# Laboratory results taken from article doi:10.1101/2025.11.12.688043 (bioRxiv, 2025).
# B1: Saccharomyces cerevisiae TOK1, wild type (natural protein, UniProt P40310 1-691, looked up)
# chain: MTRFMNSFAKQTLGYGNMATVEQESSAQAVDSHSNNTPKQAKGVLAEELKDALRFRDERVSIINAEPSSTLFVFWFVVSCYFPVITACLGPVANTISIACVVEKWRSLKNNSVVTNPRSNDTDVLMNQVKTVFDPPGIFAVNIISLVLGFTSNIILMLHFSKKLTYLKSQLINITGWTIAGGMLLVDVIVCSLNDMPSIYSKTIGFWFACISSGLYLVCTIILTIHFIGYKLGKYPPTFNLLPNERSIMAYTVLLSLWLIWGAGMFSGLLHITYGNALYFCTVSLLTVGLGDILPKSVGAKIMVLIFSLSGVVLMGLIVFMTRSIIQKSSGPIFFFHRVEKGRSKSWKHYMDSSKNLSEREAFDLMKCIRQTASRKQHWFSLSVTIAIFMAFWLLGALVFKFAENWSYFNCIYFCFLCLLTIGYGDYAPRTGAGRAFFVIWALGAVPLMGAILSTVGDLLFDISTSLDIKIGESFNNKVKSIVFNGRQRALSFMVNTGEIFEESDTADGDLEENTTSSQSSQISEFNDNNSEENDSGVTSPPASLQESFSSLSKASSPEGILPLEYVSSAEYALQDSGTCNLRNLQELLKAVKKLHRICLADKDYTLSFSDWSYIHKLHLRNITDIEEYTRGPEFWISPDTPLKFPLNEPHFAFMMLFKNIEELVGNLVEDEELYKVISKRKFLGEHRKTL
# Biological target: the molecule itself
# Assay: cryo-EM structure
protein,measurement,value
B1,stoichiometry N,2
